The text below walks through data of article PMC8373119.

The target in experiment [1] is ΔEGF/Lam_Celsr3 (mouse Celsr3-Flag lacking all the EGF repeats and laminin domains) (mouse) (UniProt Q91ZI0). The experiment in a line: co-IP.
The target of experiment [2] is ΔLaminin G1_Celsr3 (mouse Celsr3-Flag lacking the laminin G1 domain) (mouse) (UniProt Q91ZI0). The experiment in a line: co-IP.

B1: mouse Frizzled3 (Frizzled3-HA) (receptor)
chain: HSLFSCEPITLRMCQDLPYNTTFMPNLLNHYDQQTAALAMEPFHPMVNLDCSRDFRPFLCALYAPICMEYGRVTLPCRRLCQRAYSECSKLMEMFGVPWPEDMECSRFPDCDEPYPRLVDLNLVGDPTEGAPVAVQRDYGFWCPRELKIDPDLGYSFLHVRDCSPPCPNMYFRREELSFARYFIGLISIICLSATLFTFLTFLIDVTRFRYPERPIIFYAVCYMMVSLIFFIGFLLEDRVACNASSPAQYKASTVTQGSHNKACTMLFMVLYFFTMAGSVWWVILTITWFLAAVPKWGSEAIEKKALLFHASAWGIPGTLTIILLAMNKIEGDNISGVCFVGLYDVDALRYFVLAPLCLYVVVGVSLLLAGIISLNRVRIEIPLEKENQDKLVKFMIRIGVFSILYLVPLLVVIGCYFYEQAYRGIWETTWIQERCREYHIPCPYQVTQMSRPDLILFLMKYLMALIVGIPSIFWVGSKKTCFEWASFFHGRRKKEIVNESRQVLQEPDFAQSLLRDPNTPIIRKSRGTSTQGTSTHASSTQLAMVDDQRSKAGSVHSKVSSYHGSLHRSRDGRYTPCSYRGMEERLPHGSMSRLTDHSRHSSSHRLNEQSRHSSIRDLSNNPMTHITHGTSMNRVIEEDGTSA
In the case of B1, the percent reduction of the interaction against wild-type Celsr3 in experiment [1] is 68%; in experiment [2], 66%.
